T1: ICE (Homo sapiens, UniProt P29466)
T1 sequence (P29466 120-404): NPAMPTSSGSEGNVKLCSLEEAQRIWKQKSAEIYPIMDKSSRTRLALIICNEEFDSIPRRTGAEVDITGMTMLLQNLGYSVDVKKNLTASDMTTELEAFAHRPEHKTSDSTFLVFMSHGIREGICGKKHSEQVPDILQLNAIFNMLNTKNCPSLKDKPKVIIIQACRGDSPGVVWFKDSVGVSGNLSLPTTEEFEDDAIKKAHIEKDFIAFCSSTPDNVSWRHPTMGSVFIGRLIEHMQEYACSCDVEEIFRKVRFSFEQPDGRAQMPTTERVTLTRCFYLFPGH

B1: ICE (Interleukin-1β-Converting Enzyme), human (protein)
chain: MADKVLKEKRKLFIRSMGEGTINGLLDELLQTRVLNKEEMEKVKRENATVMDKTRALIDSVIPKGAQACQICITYICEEDSYLAGTLGLSADQTSGNYLNMQDSQGVLSSFPAPQAVQDNPAMPTSSGSEGNVKLCSLEEAQRIWKQKSAEIYPIMDKSSRTRLALIICNEEFDSIPRRTGAEVDITGMTMLLQNLGYSVDVKKNLTASDMTTELEAFAHRPEHKTSDSTFLVFMSHGIREGICGKKHSEQVPDILQLNAIFNMLNTKNCPSLKDKPKVIIIQACRGDSPGVVWFKDSVGVSGNLSLPTTEEFEDDAIKKAHIEKDFIAFCSSTPDNVSWRHPTMGSVFIGRLIEHMQEYACSCDVEEIFRKVRFSFEQPDGRAQMPTTERVTLTRCFYLFPGH

What was measured:
[1] = target: T1, ICE; assay: Inhibition of ICE cleavage of pIL-1β, SDS-PAGE and Western blotting; format: biochemical; parameters: expressed in transfected cells; host or cells: COS-7 cells transfected with pSG5-ICE cDNA, or alternatively lysate of freshly isolated human monocytes; conditions: pIL-1β 5 ng incubated with ICE; peptides 100, 300 or 1,000 μM; Western blotting
Experimental: cDNA coding for human ICE has been amplified by PCR. The sequence was confirmed and the cDNA was subcloned into pSG5 expression vector. COS cells were transfected with empty vector (mock) or vector containing ICE cDNA and after 48 hours, cells were analysed for the expression of ICE specific mRNA.
A monocyte lysate, prepared as previously described (11), was also able to convert pIL-1β into a mature form (FIG. 2). Therefore, recombinant ICE or freshly isolated human monocytes were used as a source of ICE enzymatic activity for further experiments.
A source of ICE activity was prepared and its ability to cleave pIL-1β was tested by incubating the reaction at 37° C. for 1 hour. The mixture was then run on SDS-PAGE and the presence of pIL1-β or the mature form was evidenced by Western Blotting.

[2] = target: Human recombinant IL-1β precursor, P01584
Human recombinant IL-1β precursor, P01584, sequence (P01584 whole entry, looked up): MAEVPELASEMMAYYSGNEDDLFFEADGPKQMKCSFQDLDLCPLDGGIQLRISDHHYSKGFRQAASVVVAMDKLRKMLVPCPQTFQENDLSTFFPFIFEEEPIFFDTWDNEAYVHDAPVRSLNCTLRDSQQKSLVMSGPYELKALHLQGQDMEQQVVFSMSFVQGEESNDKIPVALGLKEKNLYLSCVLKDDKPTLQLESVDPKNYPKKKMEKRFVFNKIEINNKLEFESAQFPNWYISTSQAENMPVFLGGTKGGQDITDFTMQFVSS

Molecule | inhibition of ICE activity (FIG. 6) [1] | conversion of pIL-1β into the mature form (Western blotting after 60 minutes at 37° C.) [2]
peptide C: SEQ ID NO:4, designed on the basis of icIL-1raII sequence (MALADLYEEGGGGGGEGEDNADSK) | inhibition of ICE activity | 
peptide S: SEQ ID NO:5, identical to peptide C except for two Ala substituting the two Asp residues (MALAALYEEGGGGGGEGEDNAASK) | inhibition of ICE activity | 
B1 |  | A monocyte lysate, prepared as previously described (11), was also able to convert pIL-1β into a mature form
